Data published in publication PMC7138811.

Molecular target: T1, ASIC1a (human (endogenous in U251 MG, A172, A549)) (UniProt P78348)
T1 sequence: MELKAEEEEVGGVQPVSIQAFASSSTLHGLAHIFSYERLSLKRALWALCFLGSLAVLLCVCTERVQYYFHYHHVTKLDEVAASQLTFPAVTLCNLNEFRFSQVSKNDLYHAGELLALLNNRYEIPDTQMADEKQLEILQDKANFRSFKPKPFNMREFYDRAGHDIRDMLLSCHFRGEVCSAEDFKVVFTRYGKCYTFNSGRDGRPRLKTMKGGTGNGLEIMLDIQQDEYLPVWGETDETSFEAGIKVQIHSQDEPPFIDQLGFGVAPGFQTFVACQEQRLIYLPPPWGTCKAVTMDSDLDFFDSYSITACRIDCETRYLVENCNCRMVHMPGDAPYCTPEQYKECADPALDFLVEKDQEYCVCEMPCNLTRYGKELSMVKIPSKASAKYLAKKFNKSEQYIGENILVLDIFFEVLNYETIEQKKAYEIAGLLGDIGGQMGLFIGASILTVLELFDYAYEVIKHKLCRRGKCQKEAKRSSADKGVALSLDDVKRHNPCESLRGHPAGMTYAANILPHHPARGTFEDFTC

B1: recombinant mambalgin-2 (peptide)
chain: LKCFQHGKVVTCHRDMKFCYHNTGMPFRNLKLILQGCSSSCSETENNKCCSTDRCNK
Work on B1 yielded a growth of A172 glioma cells expressing the ASIC1a subunit, EC50 of 10 nM, a growth of A549 lung carcinoma cells expressing the ASIC1a subunit, EC50 of 8 nM and a growth of U251 MG glioma cells expressing the ASIC1a subunit, EC50 of 0.9 nM.
